# Target: Bmh1 (UniProt P29311)
# Assay: Strep-Bmh1 pull-down, stained SDS-PAGE
# Settings: reference: unmodified Hst2
binding against the reference (sites S320),binding against the reference (sites S324),Substance
gained,,Hst2 (from UniProt P53686) Hst2 S320ph
,gained,Hst2 (from UniProt P53686) Hst2 S324ph

# From article PMC7948448
